Results published in US20240239915A1 (Zymeworks, published 2024).
Read-outs that look alike come from different tables or passages of the source.

T1: Recombinant Cynomolgus Monkey Fc gamma RI/CD64 Protein, CF (R&D Systems), His-tagged (cynomolgus, UniProt P12314 11-288 (human entry))
T1 construct: also called cynomolgus FcγRI; cFcγRI
T1 chain: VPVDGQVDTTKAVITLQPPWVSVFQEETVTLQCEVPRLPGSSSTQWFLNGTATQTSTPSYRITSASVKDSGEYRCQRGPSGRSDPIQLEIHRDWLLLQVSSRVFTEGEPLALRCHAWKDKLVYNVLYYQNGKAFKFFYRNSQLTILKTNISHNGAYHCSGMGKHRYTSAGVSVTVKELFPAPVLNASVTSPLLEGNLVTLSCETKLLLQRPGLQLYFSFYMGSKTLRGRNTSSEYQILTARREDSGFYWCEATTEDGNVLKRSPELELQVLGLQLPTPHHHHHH

T2: Recombinant Human Fc gamma RIIA/CD32a (R167) Protein (R&D Systems), His-tagged (human, UniProt P12318 36-218)
T2 construct: also called human FcγRIIa; hFcγRIIa
T2 chain: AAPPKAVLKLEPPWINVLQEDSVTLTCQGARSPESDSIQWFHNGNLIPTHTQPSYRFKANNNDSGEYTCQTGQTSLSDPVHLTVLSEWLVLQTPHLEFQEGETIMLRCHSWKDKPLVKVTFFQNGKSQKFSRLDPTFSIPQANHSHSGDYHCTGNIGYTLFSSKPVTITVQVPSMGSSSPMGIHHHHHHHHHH

T3: Recombinant Human Fc gamma RIIA/CD32a (H167) Protein (R&D Systems), His-tagged (human, UniProt P12318 34-218)
T3 construct: also called human FcγRIIa (H167); hFcγRIIa (H167)
T3 sequence: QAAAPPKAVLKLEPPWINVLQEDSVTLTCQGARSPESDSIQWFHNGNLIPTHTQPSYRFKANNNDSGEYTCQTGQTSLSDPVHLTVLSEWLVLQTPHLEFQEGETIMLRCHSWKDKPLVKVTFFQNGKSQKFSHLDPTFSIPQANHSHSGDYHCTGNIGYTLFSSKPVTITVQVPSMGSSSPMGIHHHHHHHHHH

T4: Recombinant Human Fc gamma RIIB/C (CD32b/c) Protein (R&D Systems), His-tagged (human, UniProt P31994 46-217)
T4 construct: also called human FcγRIIb/c; hFcγRIIb/c
T4 sequence: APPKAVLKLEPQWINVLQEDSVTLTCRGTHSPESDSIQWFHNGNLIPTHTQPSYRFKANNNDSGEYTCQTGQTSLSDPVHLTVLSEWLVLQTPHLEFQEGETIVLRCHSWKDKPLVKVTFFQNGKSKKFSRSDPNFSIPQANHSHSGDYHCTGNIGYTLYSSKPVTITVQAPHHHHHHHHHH

T5: Recombinant Cynomolgus Fc gamma RIIA/CD32a Protein (R&D Systems), His-tagged (cynomolgus)
T5 construct: also called cynomolgus FcγRIIa; cFcγRIIa
T5 chain: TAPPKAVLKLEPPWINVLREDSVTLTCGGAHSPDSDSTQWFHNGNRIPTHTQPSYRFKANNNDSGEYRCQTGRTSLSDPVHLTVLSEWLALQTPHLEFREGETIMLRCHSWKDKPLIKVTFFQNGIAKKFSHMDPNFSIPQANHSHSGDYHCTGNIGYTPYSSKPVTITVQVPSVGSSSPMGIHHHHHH

T6: Recombinant Cynomolgus Fc gamma RIIB protein (R&D Systems), His-tagged (cynomolgus)
T6 construct: also called cynomolgus FcγRIIb; cFcγRIIb
T6 chain: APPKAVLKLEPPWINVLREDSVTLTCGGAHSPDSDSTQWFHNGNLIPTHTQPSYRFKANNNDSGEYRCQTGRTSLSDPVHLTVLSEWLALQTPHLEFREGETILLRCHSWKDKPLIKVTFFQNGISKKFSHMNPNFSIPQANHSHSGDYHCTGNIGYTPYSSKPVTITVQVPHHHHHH

T7: Recombinant Cynomolgus Fc gamma RIII/CD16 Protein (R&D Systems), His-tagged (cynomolgus, UniProt Q8SPW2 17-208)
T7 construct: also called cynomolgus FcγRIII; cFcγRIII
T7 chain: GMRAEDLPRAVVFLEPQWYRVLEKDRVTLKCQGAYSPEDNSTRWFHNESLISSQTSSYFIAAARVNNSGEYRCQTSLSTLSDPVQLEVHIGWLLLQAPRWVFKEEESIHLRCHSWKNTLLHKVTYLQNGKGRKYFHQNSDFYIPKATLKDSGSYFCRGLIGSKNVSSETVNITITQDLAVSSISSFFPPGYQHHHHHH

T8: Recombinant Human Fc gamma RIIIB/CD16b Protein (R&D Systems), His-tagged (human, UniProt O75015 20-208)
T8 construct: also called human FcγRIIIb; hFcγRIIIb
T8 chain: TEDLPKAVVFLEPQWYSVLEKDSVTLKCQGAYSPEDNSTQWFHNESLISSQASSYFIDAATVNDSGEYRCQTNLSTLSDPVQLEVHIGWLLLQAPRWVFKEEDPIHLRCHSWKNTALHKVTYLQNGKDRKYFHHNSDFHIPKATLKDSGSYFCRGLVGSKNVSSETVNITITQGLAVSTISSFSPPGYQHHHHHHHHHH


Assays:
[1] = target: T1, Recombinant Cynomolgus Monkey Fc gamma …; assay: SPR (Biacore T200); His-tagged receptor captured on anti-His antibody chip, antibody as analyte at 4.7 µM
[2] = target: T9, human FcRn (human neonatal Fc receptor large subunit p51 and beta2-microglobulin), biotinylated (human, UniProt P55899 24-297; P61769 21-119, biotinylated (site not stated)); assay: BLI (Octet RED384), biotinylated FcRn on streptavidin biosensor, binding and dissociation at pH 6.0
T9 sequence (P55899 24-297 limits assumed, chain 1 of 2): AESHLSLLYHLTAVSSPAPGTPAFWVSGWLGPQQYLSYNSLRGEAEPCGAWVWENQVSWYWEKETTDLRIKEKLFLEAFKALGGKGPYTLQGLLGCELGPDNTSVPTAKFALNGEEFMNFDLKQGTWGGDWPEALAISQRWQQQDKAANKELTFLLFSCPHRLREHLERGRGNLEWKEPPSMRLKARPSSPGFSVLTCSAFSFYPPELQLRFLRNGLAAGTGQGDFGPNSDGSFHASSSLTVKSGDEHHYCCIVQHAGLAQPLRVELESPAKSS
T9 sequence (P61769 21-119 limits assumed, chain 2 of 2): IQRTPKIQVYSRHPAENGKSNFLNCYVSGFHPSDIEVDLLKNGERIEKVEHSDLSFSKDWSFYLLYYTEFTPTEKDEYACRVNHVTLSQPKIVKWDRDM

[3] = target: T2, Recombinant Human Fc gamma RIIA/CD32a …; assay: SPR (Biacore T200); receptor immobilized directly on CM5 chip, antibody as analyte at 4.7 µM
[4] = target: T3, Recombinant Human Fc gamma RIIA/CD32a …; assay: as above
[5] = target: T10, Recombinant Human Fc gamma RIIIA/CD16a protein (R&D Systems), His-tagged (human, UniProt P08637 17-208); assay: as above
T10 construct: also called human FcγRIIIa; hFcγRIIIa
T10 sequence (P08637 other isoform, or with tags, fused parts or gaps): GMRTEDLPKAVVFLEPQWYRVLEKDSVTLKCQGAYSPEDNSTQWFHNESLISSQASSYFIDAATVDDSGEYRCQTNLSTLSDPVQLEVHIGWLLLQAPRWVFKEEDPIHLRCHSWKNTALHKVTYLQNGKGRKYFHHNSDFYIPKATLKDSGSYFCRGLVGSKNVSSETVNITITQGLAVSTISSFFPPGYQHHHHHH

[6] = target: T4, Recombinant Human Fc gamma RIIB/C …; assay: as above
[7] = target: T5, Recombinant Cynomolgus Fc gamma …; assay: as above
[8] = target: T6, Recombinant Cynomolgus Fc gamma RIIB …; assay: as above
[9] = target: T7, Recombinant Cynomolgus Fc gamma …; assay: as above
[10] = target: T9, human FcRn (human neonatal Fc receptor …); assay: BLI (Octet RED384), biotinylated FcRn on streptavidin biosensor, binding at pH 6.0, dissociation at pH 7.4
[11] = target: T11, Recombinant Human Fc gamma RIIIA/CD16a (V176F) Protein (R&D Systems), His-tagged (human, UniProt P08637 17-208); assay: SPR (Biacore T200); receptor immobilized directly on CM5 chip, antibody as analyte at 4.7 µM
T11 construct: no further substitution applied; also called human FcγRIIIa (V176F); hFcγRIIIa (V176F)
T11 sequence (P08637 other isoform, or with tags, fused parts or gaps V176F V176F): as the sequence (P08637 other isoform, or with tags, fused parts or gaps) above, with V160F counted along it

[12] = target: T8, Recombinant Human Fc gamma RIIIB/CD16b …; assay: as above
[13] = target: T3, Recombinant Human Fc gamma RIIA/CD32a …; assay: as above; remark: listed apart in the source
[14] = target: T10, Recombinant Human Fc gamma RIIIA/CD16a …; assay: as above; remark: listed apart in the source
[15] = target: T4, Recombinant Human Fc gamma RIIB/C …; assay: as above; remark: listed apart in the source
[16] = target: T5, Recombinant Cynomolgus Fc gamma …; assay: as above
[17] = target: T6, Recombinant Cynomolgus Fc gamma RIIB …; assay: as above
[18] = target: T7, Recombinant Cynomolgus Fc gamma …; assay: as above
[19] = target: T1, Recombinant Cynomolgus Monkey Fc gamma …; assay: SPR (Biacore T200), RU at 4.7 µM antibody

Binder	binding response (RU) [1] [RU]	Kd [2] [nM]	binding response (RU) [3] [RU]	binding response (RU) [4] [RU]	binding response (RU) [5] [RU]	binding response (RU) [6] [RU]	binding response (RU) [7] [RU]	binding response (RU) [8] [RU]	binding response (RU) [9] [RU]	koff [10] [s⁻¹]	binding response (RU) [11] [RU]	binding response (RU) [12] [RU]	binding response (RU) [13] [RU]	binding response (RU) [14] [RU]	binding response (RU) [15] [RU]	binding response (RU) [16] [RU]	binding response (RU) [17] [RU]	binding response (RU) [18] [RU]	RU value relative to the LALA-DA variant [19] [fold]
L234A/L235A (LALA) variant of IgG1 WT of the anti-EGFR antibody panitumumab (antibody, Mutations in both CH2 domains) heavy: not shown light: not shown	3200	5.5	330	160	420	78	94	270	540	2.8									
L234A/L235A/D265T (LALA-DT) variant of IgG1 WT of the anti-EGFR antibody panitumumab (antibody, Mutations in both CH2 domains; positions are EU numbers) heavy: QVQLQESGPGLVKPSETLSLTCTVSGGSVSSGDYYWTWIRQSPGKGLEWIGHIYYSGNTNYNPSLKSRLTISIDTSKTQFSLKLSSVTAADTAIYYCVRDRVTGAFDIWGQGTMVTVSSASTKGPSVFPLAPSSKSTSGGTAALGCLVKDYFPEPVTVSWNSGALTSGVHTFPAVLQSSGLYSLSSVVTVPSSSLGTQTYICNVNHKPSNTKVDKRVEPKSCDKTHTCPPCPAPEAAGGPSVFLFPPKPKDTLMISRTPEVTCVVVTVSHEDPEVKFNWYVDGVEVHNAKTKPREEQYNSTYRVVSVLTVLHQDWLNGKEYKCKVSNKALPAPIEKTISKAKGQPREPQVYTLPPSREEMTKNQVSLTCLVKGFYPSDIAVEWESNGQPENNYKTTPPVLDSDGSFFLYSKLTVDKSRWQQGNVFSCSVMHEALHNHYTQKSLSLSPGK light: not shown											-3.6	-0.2	37	-1.4	15	24	93	4.8	≥ 1.4
